# In US20190381150:
# Target: Human lactoferrin (lactoferrin from human milk, Sigma) (UniProt P02788)
# Sequence (P02788 20-710): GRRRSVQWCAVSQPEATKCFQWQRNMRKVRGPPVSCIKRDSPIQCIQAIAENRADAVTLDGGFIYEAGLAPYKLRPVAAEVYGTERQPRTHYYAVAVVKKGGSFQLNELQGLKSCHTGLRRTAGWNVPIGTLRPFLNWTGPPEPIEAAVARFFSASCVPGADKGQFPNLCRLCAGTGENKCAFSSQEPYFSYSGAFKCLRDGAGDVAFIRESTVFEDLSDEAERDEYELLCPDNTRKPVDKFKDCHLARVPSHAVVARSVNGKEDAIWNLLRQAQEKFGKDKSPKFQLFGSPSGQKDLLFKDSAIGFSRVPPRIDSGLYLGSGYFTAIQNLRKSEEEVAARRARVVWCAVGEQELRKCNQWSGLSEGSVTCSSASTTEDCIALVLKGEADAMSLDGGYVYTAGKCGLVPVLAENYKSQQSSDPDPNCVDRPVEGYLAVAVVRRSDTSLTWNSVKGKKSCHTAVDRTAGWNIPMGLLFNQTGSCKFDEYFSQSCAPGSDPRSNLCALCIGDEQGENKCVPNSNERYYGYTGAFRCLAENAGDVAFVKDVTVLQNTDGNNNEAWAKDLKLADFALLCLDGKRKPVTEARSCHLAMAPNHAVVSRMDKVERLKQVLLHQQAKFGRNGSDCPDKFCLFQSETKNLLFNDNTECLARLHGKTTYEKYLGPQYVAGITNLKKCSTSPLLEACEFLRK
substance,measurement,value
"EndoBI-1 D184N (Asp 184 of EndoBI-1 mutated to Asn184), recombinant, signal sequence and transmembrane domains deleted",shift in molecular weight on SDS-PAGE of human milk after overnight incubation,No change was observed when the milk sample was incubated with EndoBI-1 D184N
